Test system: H1 or H9 human embryonic stem cells
Assay: Activin A bioassay: differentiation of human embryonic stem cells to definitive endoderm, cell number and SOX17 intensity by high content analysis (96-well, four days);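 on Cell Number average: Raw total cell count per well from high content imaging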;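 on Sox 17 Intensity average: total fluorescence of the cell multiplied by cell area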
Assay type: cell-based
Conditions: for Sox 17 Intensity % of control: control = R&D Sys Activin A 100 ng/ml on same plate
In short: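 Read-out was cell count and integrated SOX17 immunofluorescence by high-content imaging, with each well divided by the mean of the 100 ng/ml activin A control. Over the four-day culture, test samples were given in DMEM:F12 with 0.5% FCS plus 20 ng/ml Wnt3a for the first two days and in 2% FCS alone for the last two. Cells were H1 or H9 hESC clusters grown on Matrigel.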

[1] = supernatant concentration 1x, assay dilution 1:20
[2] = supernatant concentration 10x, assay dilution 1:20
[3] = supernatant concentration 10x, assay dilution 1:40
[4] = supernatant concentration 10x, assay dilution 1:20, assay plates #007, #009, #010

B1: ACTN7: activin A variant peptide, SEQ ID 8 (protein)
chain: GLECDGKVNYCCKKQHFVSFKDIGWNDWIIAPSGYHANSCSGLCPSHIAGTSGSSLSFHSTVINHYRMRGHSPFSQMGSCCIPTKLRPMSMLYYDDGQNIIKKDIQNMIVEECGCS
Cell Number average [1]: 1133 | Sox 17 Intensity average [1]: 1.108E+07 | Sox 17 Intensity % of control [1]: 6.0% | Cell Number average [2]: 2714 | Sox 17 Intensity average [2]: 1.904E+07 | Sox 17 Intensity % of control [2]: 10.4% | Cell Number average [3]: 1387 | Sox 17 Intensity average [3]: 1.099E+07 | Sox 17 Intensity % of control [3]: 6.0%

B2: ACTN20: activin A variant peptide, SEQ ID 21 (protein)
chain: GLECDGKVNLCCKKQNFVSFKDIGWNDWIIAPSGYHANKCGGLCPSHIAGTSGSSLSFHSTVINHYRMRGHSPFAQMGACCIPTKLRPMSMLYYDDGQNIIKKDIQNMIVEECGCS
Cell Number average [1]: 9000 | Sox 17 Intensity average [1]: 1.26E+04 | Sox 17 Intensity % of control [1]: 0.0% | Cell Number average [2]: 10217 | Sox 17 Intensity average [2]: 1.52E+05 | Sox 17 Intensity % of control [2]: 0.5% | Cell Number average [3]: 12284 | Sox 17 Intensity average [3]: 9.03E+03 | Sox 17 Intensity % of control [3]: 0.0%

B3: ACTN17: activin A variant peptide, SEQ ID 18 (protein)
chain: GLECDGKVNYCCKKQDFVSFKDIGWNDWIIAPSGYHANKCGGKCPSHIAGTSGSSLSFHSTVINHYRMRGHSPFSDMGACCVPTKLRPMSMLYYDDGQNIIKKDIQNMIVEECGCS
Cell Number average [1]: 10154 | Sox 17 Intensity average [1]: 1.21E+06 | Sox 17 Intensity % of control [1]: 4.7% | Cell Number average [2]: 12596 | Sox 17 Intensity average [2]: 2.83E+05 | Sox 17 Intensity % of control [2]: 1.1% | Cell Number average [3]: 10807 | Sox 17 Intensity average [3]: 4.38E+05 | Sox 17 Intensity % of control [3]: 1.7%

B4: ACTN19: activin A variant peptide, SEQ ID 20 (protein)
chain: GLECDGKVNLCCKKQDFVSFKDIGWNDWIIAPSGYHANKCGGKCPSHIAGTSGSSLSFHSTVINHYRMRGHSPFANMGSCCIPTKLRPMSMLYYDDGQNIIKKDIQNMIVEECGCS
Cell Number average [1]: 11017 | Sox 17 Intensity average [1]: 4.09E+04 | Sox 17 Intensity % of control [1]: 0.1% | Cell Number average [2]: 11587 | Sox 17 Intensity average [2]: 3.96E+04 | Sox 17 Intensity % of control [2]: 0.1% | Cell Number average [3]: 12549 | Sox 17 Intensity average [3]: 4.86E+03 | Sox 17 Intensity % of control [3]: 0.0%

B5: ACTN9: activin A variant peptide, SEQ ID 10 (protein)
chain: GLECDGKVNYCCKKQDFVSFKDIGWNDWIIAPSGYHANKCTGKCPSHIAGTSGSSLSFHSTVINHYRMRGHSPFADLGACCIPTKLRPMSMLYYDDGQNIIKKDIQNMIVEECGCS
Cell Number average [1]: 11391 | Sox 17 Intensity average [1]: 5.97E+05 | Sox 17 Intensity % of control [1]: 2.3% | Cell Number average [2]: 11456 | Sox 17 Intensity average [2]: 6.63E+05 | Sox 17 Intensity % of control [2]: 2.6% | Cell Number average [3]: 9608 | Sox 17 Intensity average [3]: 4.19E+05 | Sox 17 Intensity % of control [3]: 1.6%

B6: ACTN18: activin A variant peptide, SEQ ID 19 (protein)
chain: GLECDGKVNYCCKKQNFVSFKDIGWNDWIIAPSGYHANKCSGKCPSHIAGTSGSSLSFHSTVINHYRMRGHSPFSDMGACCIPTKLRPMSMLYYDDGQNIIKKDIQNMIVEECGCS
Cell Number average [1]: 6078 | Sox 17 Intensity average [1]: 5.68E+05 | Sox 17 Intensity % of control [1]: 2.2% | Cell Number average [2]: 9676 | Sox 17 Intensity average [2]: 1.22E+06 | Sox 17 Intensity % of control [2]: 4.7% | Cell Number average [3]: 11683 | Sox 17 Intensity average [3]: 2.22E+05 | Sox 17 Intensity % of control [3]: 0.9%

B7: ACTN11: activin A variant peptide, SEQ ID 12 (protein)
chain: GLECDGKVNLCCKKQLFVSFKDIGWNDWIIAPSGYHANHCSGLCPSHIAGTSGSSLSFHSTVINHYRMRGHSPFAQMGACCIPTKLRPMSMLYYDDGQNIIKKDIQNMIVEECGCS
Cell Number average [1]: 5239 | Sox 17 Intensity average [1]: 3.47E+06 | Sox 17 Intensity % of control [1]: 13.4% | Cell Number average [2]: 10321 | Sox 17 Intensity average [2]: 4.06E+07 | Sox 17 Intensity % of control [2]: 156.8% | Cell Number average [3]: 9493 | Sox 17 Intensity average [3]: 2.79E+07 | Sox 17 Intensity % of control [3]: 107.8%

B8: ACTN12: activin A variant peptide, SEQ ID 13 (protein)
chain: GLECDGKVNYCCKKQNFVSFKDIGWNDWIIAPSGYHANECSGLCPSHIAGTSGSSLSFHSTVINHYRMRGHSPFSQMGSCCIPTKLRPMSMLYYDDGQNIIKKDIQNMIVEECGCS
Cell Number average [1]: 5420 | Sox 17 Intensity average [1]: 1.10E+06 | Sox 17 Intensity % of control [1]: 4.3% | Cell Number average [2]: 6633 | Sox 17 Intensity average [2]: 7.65E+06 | Sox 17 Intensity % of control [2]: 29.6% | Cell Number average [3]: 6317 | Sox 17 Intensity average [3]: 2.43E+06 | Sox 17 Intensity % of control [3]: 9.4%

B9: ACTN10: activin A variant peptide, SEQ ID 11 (protein)
chain: GLECDGKVNYCCKKQDFVSFKDIGWNDWIIAPSGYHANRCSGLCPSHIAGTSGSSLSFHSTVINHYRMRGHSPFAQMGSCCIPTKLRPMSMLYYDDGQNIIKKDIQNMIVEECGCS
Cell Number average [1]: 7417 | Sox 17 Intensity average [1]: 7.52E+05 | Sox 17 Intensity % of control [1]: 2.9% | Cell Number average [2]: 8942 | Sox 17 Intensity average [2]: 1.08E+06 | Sox 17 Intensity % of control [2]: 4.2% | Cell Number average [3]: 7333 | Sox 17 Intensity average [3]: 5.59E+05 | Sox 17 Intensity % of control [3]: 2.2%

B10: ACTN8: activin A variant peptide, SEQ ID 9 (protein)
chain: GLECDGKVNYCCKKQDFVSFKDIGWNDWIIAPSGYHANKCSGKCPSHIAGTSGSSLSFHSTVINHYRMRGHSPFSDMGSCCVPTKLRPMSMLYYDDGQNIIKKDIQNMIVEECGCS
Cell Number average [1]: 363 | Sox 17 Intensity average [1]: 5.578E+06 | Sox 17 Intensity % of control [1]: 3.0% | Cell Number average [2]: 1419 | Sox 17 Intensity average [2]: 1.181E+07 | Sox 17 Intensity % of control [2]: 6.4% | Cell Number average [3]: 372 | Sox 17 Intensity average [3]: 3.869E+06 | Sox 17 Intensity % of control [3]: 2.1%

B11: ACTN14: activin A variant peptide, SEQ ID 15 (protein)
chain: GLECDGKVNLCCKKQHFVSFKDIGWNDWIIAPSGYHANRCDGLCPSHIAGTSGSSLSFHSTVINHYRMRGHSPFAQMGSCCVPTKLRPMSMLYYDDGQNIIKKDIQNMIVEECGCS
Cell Number average [1]: 4968 | Sox 17 Intensity average [1]: 1.50E+06 | Sox 17 Intensity % of control [1]: 5.8% | Cell Number average [2]: 6278 | Sox 17 Intensity average [2]: 3.66E+06 | Sox 17 Intensity % of control [2]: 14.1% | Cell Number average [3]: 5584 | Sox 17 Intensity average [3]: 4.73E+06 | Sox 17 Intensity % of control [3]: 18.3%

B12: ACTN77: activin A variant peptide, SEQ ID 78 (protein)
chain: GLECDGKVNICCKKQMFGKAKDIGWNDWIIAPSGYHGGGCTGECPSHIAGTSGSSLSFHSTVINHYRMRGHSPWANLKSCCSPTKLRPMSMLYYDDGQNIIKKDIQNMVVEECGCT
Cell Number average [4]: 17696 | Sox 17 Intensity average [4]: 2.82E+07 | Sox 17 Intensity % of control [2]: 20.0%

B13: ACTN81: activin A variant peptide, SEQ ID 82 (protein)
chain: GLECDGKVNICCKKQLFGKTKDIGWNDWIIAPSGYHGGGCTGECPSHIAGTSGSSLSFHSTVINHYRMRGHSPVANLKSCCSPTKLRPMSMLYYDDGQNIIKKDIQRMVVEECGCT
Cell Number average [4]: 19897 | Sox 17 Intensity average [4]: 1.60E+07 | Sox 17 Intensity % of control [2]: 11.4%

B14: ACTN94: activin A variant peptide, SEQ ID 95 (protein)
chain: GLECDGKVNICCKKQSFGQAKDIGWNDWIIAPSGYHGGGCTGECPSHIAGTSGSSLSFHSTVINHYRMRGHSPWANLKSCCSPTKLRPMSMLYYDDGQNIIKKDIQRMVAEECGCT
Cell Number average [4]: 20142 | Sox 17 Intensity average [4]: 1.51E+07 | Sox 17 Intensity % of control [2]: 10.7%

B15: ACTN91: activin A variant peptide, SEQ ID 92 (protein)
chain: GLECDGKVNICCKKQSFGRTKDIGWNDWIIAPSGYHGGGCSGECPSHIAGTSGSSLSFHSTVINHYRMRGHSPWANLKSCCSPTKLRPMSMLYYDDGQNIIKKDIQNMVVEECGCT
Cell Number average [4]: 17043 | Sox 17 Intensity average [4]: 1.12E+07 | Sox 17 Intensity % of control [2]: 7.9%

— US20110091971A1, “Differentiation of Pluripotent Stem Cells” (priority 2008, published 2011)
